Test [1] has as its target fibrinogen fragment D (human). Briefly: SPR.
For test [2], the target named is fibrin matrix (thrombin- and factor XIIIa-treated human fibrinogen) (human) (UniProt P02671). Briefly: confocal microscopy of perfused fibrin matrices.

Here are results for 3 substances from PMC2813981.

UniProt P02671, sequence (P02671 36-866, chain 1 of 3): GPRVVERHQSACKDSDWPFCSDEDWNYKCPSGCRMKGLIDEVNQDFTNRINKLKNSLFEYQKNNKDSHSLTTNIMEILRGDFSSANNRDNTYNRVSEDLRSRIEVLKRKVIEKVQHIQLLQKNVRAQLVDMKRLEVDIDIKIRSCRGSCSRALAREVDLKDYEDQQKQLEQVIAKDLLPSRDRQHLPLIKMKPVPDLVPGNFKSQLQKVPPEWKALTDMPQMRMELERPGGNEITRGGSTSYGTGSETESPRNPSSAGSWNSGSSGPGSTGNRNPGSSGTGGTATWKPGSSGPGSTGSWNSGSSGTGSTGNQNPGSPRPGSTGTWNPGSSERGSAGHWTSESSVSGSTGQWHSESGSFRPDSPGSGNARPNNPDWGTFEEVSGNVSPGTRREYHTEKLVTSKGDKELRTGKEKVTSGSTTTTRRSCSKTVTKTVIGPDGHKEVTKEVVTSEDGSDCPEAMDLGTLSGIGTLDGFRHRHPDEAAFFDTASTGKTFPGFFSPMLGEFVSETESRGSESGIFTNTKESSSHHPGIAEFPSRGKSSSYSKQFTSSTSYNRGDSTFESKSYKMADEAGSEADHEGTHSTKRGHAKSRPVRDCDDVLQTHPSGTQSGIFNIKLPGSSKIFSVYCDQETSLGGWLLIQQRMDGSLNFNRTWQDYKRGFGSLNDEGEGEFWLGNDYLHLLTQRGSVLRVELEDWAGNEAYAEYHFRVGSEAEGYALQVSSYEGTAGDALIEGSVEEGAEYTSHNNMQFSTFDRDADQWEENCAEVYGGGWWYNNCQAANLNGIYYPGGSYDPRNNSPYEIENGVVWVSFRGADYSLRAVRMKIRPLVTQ
UniProt P02671, sequence (P02675 45-491, chain 2 of 3, further chain): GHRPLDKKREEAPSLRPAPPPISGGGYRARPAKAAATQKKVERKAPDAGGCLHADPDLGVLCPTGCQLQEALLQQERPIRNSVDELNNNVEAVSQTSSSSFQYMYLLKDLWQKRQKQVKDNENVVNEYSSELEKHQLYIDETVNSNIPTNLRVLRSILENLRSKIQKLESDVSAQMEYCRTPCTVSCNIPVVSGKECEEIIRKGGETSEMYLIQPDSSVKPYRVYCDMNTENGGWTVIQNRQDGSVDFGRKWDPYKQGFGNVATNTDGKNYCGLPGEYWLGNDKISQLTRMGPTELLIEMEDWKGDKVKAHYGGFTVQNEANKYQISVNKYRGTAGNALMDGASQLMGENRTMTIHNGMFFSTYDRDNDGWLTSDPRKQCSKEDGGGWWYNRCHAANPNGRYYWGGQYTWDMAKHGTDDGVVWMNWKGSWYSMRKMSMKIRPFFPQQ
UniProt P02671, sequence (P02679 27-453, chain 3 of 3, further chain): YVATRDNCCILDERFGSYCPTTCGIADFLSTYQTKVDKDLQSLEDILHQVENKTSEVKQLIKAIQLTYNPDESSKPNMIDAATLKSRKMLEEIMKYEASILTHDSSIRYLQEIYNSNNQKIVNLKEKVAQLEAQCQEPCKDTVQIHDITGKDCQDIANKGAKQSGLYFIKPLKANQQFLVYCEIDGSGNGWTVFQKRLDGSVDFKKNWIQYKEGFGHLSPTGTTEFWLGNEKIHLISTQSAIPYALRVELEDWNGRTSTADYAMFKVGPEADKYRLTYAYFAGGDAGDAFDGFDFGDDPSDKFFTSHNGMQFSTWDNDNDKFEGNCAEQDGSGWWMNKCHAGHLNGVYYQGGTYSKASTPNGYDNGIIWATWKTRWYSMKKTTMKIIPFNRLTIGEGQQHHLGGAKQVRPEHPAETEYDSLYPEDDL

Regarding GPRP-FnIII9-10 (designed binder), in test [1], the KD with a 10-molar excess of soluble GPRP peptide was found to be 43 µM and the Kd worked out at 3 µM.
On to GPRV-FnIII9-10 (designed binder), for which the Kd in test [1] is 125 µM.
In test [2], GPRP-FnIII9-10-AF633 (designed binder) returned a percent of fibrin matrix still retaining the conjugate after perfusion of 12.8%.
